Measurements as given in patent US20160031999A1 (CSL, published 2016).
Where a chain is given by its changes, count along the chain named.

B1: hu8E2-TS-76 (antibody, V domains shown)
VH: EVQLLESGGGLVQPGGSLRLSCAASGFTFWRWSITWVRQAPGKGLEWVSSIVPSGGHTQYADSVKGRFTISRDNSKNTLYLQMNSLRAEDTAVYYCAKGPGWGSFDLWGRGTLVTVSS
VL: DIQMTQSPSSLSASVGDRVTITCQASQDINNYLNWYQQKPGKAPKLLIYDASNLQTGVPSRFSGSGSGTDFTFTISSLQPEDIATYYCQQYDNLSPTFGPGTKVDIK
B2: hu8E2-TS-88 (antibody, V domains shown)
VH: B1 VH with I34T
VL: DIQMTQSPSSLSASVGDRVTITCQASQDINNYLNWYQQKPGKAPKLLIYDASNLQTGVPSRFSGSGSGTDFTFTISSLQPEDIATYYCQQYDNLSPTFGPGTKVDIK
B3: hu8E2-TS-103 (antibody, V domains shown)
VH: B1 VH with W30S, R31W, W32Y, I34M, S54Y, G56D, H57L
VL: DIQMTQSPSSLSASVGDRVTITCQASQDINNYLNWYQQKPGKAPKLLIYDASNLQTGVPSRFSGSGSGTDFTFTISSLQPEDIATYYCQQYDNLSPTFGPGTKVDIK
B4: hu8E2-TS-108 (antibody, V domains shown)
VH: B1 VH with W30S, R31W, W32Y, I34M, S54W, G56T, H57L
VL: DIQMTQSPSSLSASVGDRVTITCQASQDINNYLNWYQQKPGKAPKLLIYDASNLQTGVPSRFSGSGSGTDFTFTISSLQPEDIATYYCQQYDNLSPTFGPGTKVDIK
B5: hu8E2-TS-89 (antibody, V domains shown)
VH: B1 VH
VL: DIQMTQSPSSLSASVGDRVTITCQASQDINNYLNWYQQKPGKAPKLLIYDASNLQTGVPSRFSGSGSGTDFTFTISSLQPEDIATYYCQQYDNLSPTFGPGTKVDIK
B6: hu8E2-TS-134 (antibody, V domains shown)
VH: B1 VH with W30S, R31W, W32Y, I34M, G99P, P100E, G101D, S104L
VL: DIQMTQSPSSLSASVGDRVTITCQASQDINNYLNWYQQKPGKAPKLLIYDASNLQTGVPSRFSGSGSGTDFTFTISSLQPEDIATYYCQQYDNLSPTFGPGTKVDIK
B7: hu8E2-TS-104 (antibody, V domains shown)
VH: B1 VH with W30S, R31W, W32Y, I34M, S54W, G56T, H57I
VL: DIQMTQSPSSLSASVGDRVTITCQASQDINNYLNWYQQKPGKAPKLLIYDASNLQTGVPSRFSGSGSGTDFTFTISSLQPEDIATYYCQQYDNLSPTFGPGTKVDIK
B8: hu8E2-TS-92 (antibody, V domains shown)
VH: B1 VH with W30S, R31W
VL: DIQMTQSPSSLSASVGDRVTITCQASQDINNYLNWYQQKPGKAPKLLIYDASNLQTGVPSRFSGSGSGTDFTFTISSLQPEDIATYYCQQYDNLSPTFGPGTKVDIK
B9: hu8E2-TS-79 (antibody, V domains shown)
VH: B1 VH with W30A, R31W, W32F, I34V
VL: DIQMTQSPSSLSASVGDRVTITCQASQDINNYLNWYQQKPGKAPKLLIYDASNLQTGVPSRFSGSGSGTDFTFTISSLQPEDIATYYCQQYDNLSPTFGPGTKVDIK
B10: hu8E2-TS-82 (antibody, V domains shown)
VH: B1 VH with I34V
VL: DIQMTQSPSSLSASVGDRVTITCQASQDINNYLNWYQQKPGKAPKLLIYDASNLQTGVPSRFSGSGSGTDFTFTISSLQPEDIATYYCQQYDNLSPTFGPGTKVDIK
B11: hu8E2-TS-91 (antibody, V domains shown)
VH: B1 VH with W30G, R31W, I34L
VL: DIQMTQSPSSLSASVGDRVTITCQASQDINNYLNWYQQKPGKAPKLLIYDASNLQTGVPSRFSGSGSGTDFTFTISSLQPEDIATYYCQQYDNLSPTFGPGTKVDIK
B12: hu8E2-TS-115 (antibody, V domains shown)
VH: B1 VH with W30S, R31W, W32Y, I34M, S54H, G56D, H57L
VL: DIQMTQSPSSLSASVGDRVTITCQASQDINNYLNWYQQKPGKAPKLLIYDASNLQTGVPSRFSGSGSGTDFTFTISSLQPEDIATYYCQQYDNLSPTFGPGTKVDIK
B13: hu8E2-TS-133 (antibody, V domains shown)
VH: B1 VH with W30S, R31W, W32Y, I34M, G99P, P100V, G101D, S104R
VL: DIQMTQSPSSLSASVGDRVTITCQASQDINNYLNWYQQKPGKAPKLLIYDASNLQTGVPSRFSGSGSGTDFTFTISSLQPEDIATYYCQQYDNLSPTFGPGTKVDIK
B14: hu8E2-TS-97 (antibody, V domains shown)
VH: B1 VH with W30S, R31W, W32Y, I34M, S54W, G55A, G56D, H57Y
VL: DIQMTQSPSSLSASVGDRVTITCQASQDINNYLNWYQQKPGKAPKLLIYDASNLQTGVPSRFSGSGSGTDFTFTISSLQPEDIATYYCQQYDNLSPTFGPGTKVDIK
B15: hu8E2-TS-129 (antibody, V domains shown)
VH: B1 VH with W30S, R31W, W32Y, I34M, G99P, P100E, G101D, S104M
VL: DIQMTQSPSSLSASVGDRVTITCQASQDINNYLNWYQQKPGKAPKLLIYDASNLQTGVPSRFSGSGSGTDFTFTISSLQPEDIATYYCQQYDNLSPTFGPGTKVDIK
B16: hu8E2-TS-107 (antibody, V domains shown)
VH: B1 VH with W30S, R31W, W32Y, I34M, S54W, G56D, H57F
VL: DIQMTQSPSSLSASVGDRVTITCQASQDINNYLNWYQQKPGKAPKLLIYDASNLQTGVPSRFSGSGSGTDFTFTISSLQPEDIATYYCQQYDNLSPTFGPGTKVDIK
B17: hu8E2-TS-101 (antibody, V domains shown)
VH: B1 VH with W30S, R31W, W32Y, I34M, S54W, G56D, H57L
VL: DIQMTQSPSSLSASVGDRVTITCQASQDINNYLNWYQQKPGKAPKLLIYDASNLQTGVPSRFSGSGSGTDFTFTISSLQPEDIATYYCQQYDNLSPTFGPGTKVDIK

Molecular target: T1, human IL-11Rα (form used in the assay not stated) (human, UniProt Q14626 23-363, limits assumed)
T1 construct: also called hIL-11R; hIL-11Rα
T1 sequence: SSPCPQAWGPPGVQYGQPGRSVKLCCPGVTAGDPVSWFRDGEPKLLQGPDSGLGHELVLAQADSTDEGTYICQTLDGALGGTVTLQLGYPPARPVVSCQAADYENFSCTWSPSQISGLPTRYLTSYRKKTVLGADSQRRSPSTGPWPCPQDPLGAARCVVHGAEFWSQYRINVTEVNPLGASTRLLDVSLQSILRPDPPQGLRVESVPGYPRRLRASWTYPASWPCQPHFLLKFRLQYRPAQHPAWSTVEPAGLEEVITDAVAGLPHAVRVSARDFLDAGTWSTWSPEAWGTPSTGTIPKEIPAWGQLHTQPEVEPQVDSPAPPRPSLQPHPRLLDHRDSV
Assay: Biacore, pH 8.5, 37°C

Binder | Kd [nM]
B1 | 2.73
B2 | 2.25
B3 | 0.497
B4 | 1.93
B5 | 4.5
B6 | 0.52
B7 | 0.995
B8 | 3.2
B9 | 2.13
B10 | 2.05
B11 | 4.73
B12 | 0.735
B13 | 0.513
B14 | 1.22
B15 | 0.63
B16 | 1.29
B17 | 0.785

Molecular target: T2, human IL-11Rα on transfected cells (human, UniProt Q14626 23-422)
T2 sequence: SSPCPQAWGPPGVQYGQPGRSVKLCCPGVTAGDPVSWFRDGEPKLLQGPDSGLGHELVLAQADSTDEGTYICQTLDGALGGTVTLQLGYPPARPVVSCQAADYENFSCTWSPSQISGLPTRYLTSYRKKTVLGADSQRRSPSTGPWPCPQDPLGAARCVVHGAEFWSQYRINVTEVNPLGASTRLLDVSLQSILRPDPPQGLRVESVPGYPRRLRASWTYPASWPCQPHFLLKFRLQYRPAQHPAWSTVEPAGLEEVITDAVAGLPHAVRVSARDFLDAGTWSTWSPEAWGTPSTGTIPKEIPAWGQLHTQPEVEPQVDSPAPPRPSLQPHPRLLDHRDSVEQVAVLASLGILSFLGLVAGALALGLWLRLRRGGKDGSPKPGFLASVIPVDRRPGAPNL
Assay: cell-based or functional assay

Binder | Fold increase in potency relative to 8E2 [fold] | IC50 [µg/mL]
B1 | 3.4 | 0.32
B2 | 3 | 0.36
B3 | 4.5 | 0.33
B4 | 12.7 | 0.12
B5 | 1.4 | 0.12
B6 | 4.3 | 0.22
B7 | 5.2 | 0.28
B8 | 2.3 | 0.18
B9 | 5.3 | 0.21
B10 | 4.3 | 0.26
B11 | 1.3 | 0.34
B12 | 5.7 | 0.26
B13 | 4.1 | 0.23
B14 | 1.6 | 0.26
B15 | 4.7 | 0.2
B16 | 7.4 | 0.2
B17 | 2.1 | 0.19
